Source: the supplement of paper PMC5998384

Assays:
HeLa Kyoto [1] = test: solubility change mitosis vs G1/S (difference of NP-40 vs SDS log2 ratios) (log2 ratio difference); higher = more soluble in mitosis
HeLa Kyoto [2] = test: melting temperature (median over replicates), in situ; higher = more thermally stable
HeLa Kyoto [3] = test: solubility in G1/S (NP-40 vs SDS abundance) (log2 ratio); higher = more soluble; details: cell cycle stage: G1/S
HeLa Kyoto [4] = test: thermal stability score vs G1/S (z-score of summed log2 fold changes over temperatures); higher = more thermally stable than in G1/S
[5] = cell cycle stage: early G1 (4.5 h after nocodazole release)
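For melting temperature (median over replicates), in situ in this document: HeLa Kyoto cells synchronized by double thymidine or nocodazole block, proteins quantified by TMT10plex mass spectrometry, three independent biological replicates.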
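For solubility change mitosis vs G1/S (difference of NP-40 vs SDS log2 ratios) in this document: synchronized HeLa Kyoto cells (double thymidine block for G1/S, nocodazole release for mitosis), protein amounts in NP-40 versus SDS lysates quantified by mass spectrometry, three biological replicates.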
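For solubility in G1/S (NP-40 vs SDS abundance) in this document: HeLa Kyoto cells arrested at G1/S by double thymidine block, proteins quantified by TMT10plex mass spectrometry in mild NP-40 versus SDS extracts, three biological replicates.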
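For thermal stability score vs G1/S (z-score of summed log2 fold changes over temperatures) in this document: synchronized HeLa Kyoto cells, proteins quantified by TMT10plex mass spectrometry, three biological replicates, mitosis taken 0.5 h after nocodazole release, G1/S directly after double thymidine block.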

Sequence	solubility change mitosis (log2) (HeLa Kyoto [1])	melting temperature (HeLa Kyoto [2]; cell cycle stage: G1/S)	melting temperature (HeLa Kyoto [2]; cell cycle stage: mitosis)	solubility in G1/S (log2) (HeLa Kyoto [3])	thermal stability score (HeLa Kyoto [4]; [5])	thermal stability score (HeLa Kyoto [4]; cell cycle stage: mitosis)
MKKFSRMPKSEGGSGGGAAGGGAGGAGAGAGCGSGGSSVGVRVFAVGRHQVTLEESLAEGGFSTVFLVRTHGGIRCALKRMYVNNMPDLNVCKREITIMKELSGHKNIVGYLDCAVNSISDNVWEVLILMEYCRAGQVVNQMNKKLQTGFTEPEVLQIFCDTCEAVARLHQCKTPIIHRDLKVENILLNDGGNYVLCDFGSATNKFLNPQKDGVNVVEEEIKKYTTLSYRAPEMINLYGGKPITTKADIWALGCLLYKLCFFTLPFGESQVAICDGNFTIPDNSRYSRNIHCLIRFMLEPDPEHRPDIFQVSYFAFKFAKKDCPVSNINNSSIPSALPEPMTASEAAARKSQIKARITDTIGPTETSIAPRQRPKANSATTATPSVLTIQSSATPVKVLAPGEFGNHRPKGALRPGNGPEILLGQGPPQQPPQQHRVLQQLQQGDWRLQQLHLQHRHPHQQQQQQQQQQQQQQQQQQQQQQQQQQQHHHHHHHHLLQDAYMQQYQHATQQQQMLQQQFLMHSVYQPQPSASQYPTMMPQYQQAFFQQQMLAQHQPSQQQASPEYLTSPQEFSPALVSYTSSLPAQVGTIMDSSYSANRSVADKEAIANFTNQKNISNPPDMSGWNPFGEDNFSKLTEEELLDREFDLLRSNRLEERASSDKNVDSLSAPHNHPPEDPFGSVPFISHSGSPEKKAEHSSINQENGTANPIKNGKTSPASKDQRTGKKTSVQGQVQKGNDESESDFESDPPSPKSSEEEEQDDEEVLQGEQGDFNDDDTEPENLGHRPLLMDSEDEEEEEKHSSDSDYEQAKAKYSDMSSVYRDRSGSGPTQDLNTILLTSAQLSSDVAVETPKQEFDVFGAVPFFAVRAQQPQQEKNEKNLPQHRFPAAGLEQEEFDVFTKAPFSKKVNVQECHAVGPEAHTIPGYPKSVDVFGSTPFQPFLTSTSKSESNEDLFGLVPFDEITGSQQQKVKQRSLQKLSSRQRRTKQDMSKSNGKRHHGTPTSTKKTLKPTYRTPERARRHKKVGRRDSQSSNEFLTISDSKENISVALTDGKDRGNVLQPEESLLDPFGAKPFHSPDLSWHPPHQGLSDIRADHNTVLPGRPRQNSLHGSFHSADVLKMDDFGAVPFTELVVQSITPHQSQQSQPVELDPFGAAPFPSKQ [BMP2K]	-0.0153	50.5 °C	51.1 °C	-0.292	0.793	0.398
MKKQFNRMKQLANQTVGRAEKTEVLSEDLLQIERRLDTVRSICHHSHKRLVACFQGQHGTDAERRHKKLPLTALAQNMQEASTQLEDSLLGKMLETCGDAENQLALELSQHEVFVEKEIVDPLYGIAEVEIPNIQKQRKQLARLVLDWDSVRARWNQAHKSSGTNFQGLPSKIDTLKEEMDEAGNKVEQCKDQLAADMYNFMAKEGEYGKFFVTLLEAQADYHRKALAVLEKTLPEMRAHQDKWAEKPAFGTPLEEHLKRSGREIALPIEACVMLLLETGMKEEGLFRIGAGASKLKKLKAALDCSTSHLDEFYSDPHAVAGALKSYLRELPEPLMTFNLYEEWTQVASVQDQDKKLQDLWRTCQKLPPQNFVNFRYLIKFLAKLAQTSDVNKMTPSNIAIVLGPNLLWARNEGTLAEMAAATSVHVVAVIEPIIQHADWFFPEEVEFNVSEAFVPLTTPSSNHSFHTGNDSDSGTLERKRPASMAVMEGDLVKKESFGVKLMDFQAHRRGGTLNRKHISPAFQPPLPPTDGSTVVPAGPEPPPQSSRAESSSGGGTVPSSAGILEQGPSPGDGSPPKPKDPVSAAVPAPGRNNSQIASGQNQPQAAAGSHQLSMGQPHNAAGPSPHTLRRAVKKPAPAPPKPGNPPPGHPGGQSSSGTSQHPPSLSPKPPTRSPSPPTQHTGQPPGQPSAPSQLSAPRRYSSSLSPIQAPNHPPPQPPTQATPLMHTKPNSQGPPNPMALPSEHGLEQPSHTPPQTPTPPSTPPLGKQNPSLPAPQTLAGGNPETAQPHAGTLPRPRPVPKPRNRPSVPPPPQPPGVHSAGDSSLTNTAPTASKIVTDSNSRVSEPHRSIFPEMHSDSASKDVPGRILLDIDNDTESTAL [ARHGAP17]	-0.0286	48.2 °C	49.1 °C	0.413	0.76	2.7
MKLLARALRLCEFGRQASSRRLVAGQGCVGPRRGCCAPVQVVGPRADLPPCGACITGRIMRPDDANVAGNVHGGTILKMIEEAGAIISTRHCNSQNGERCVAALARVERTDFLSPMCIGEVAHVSAEITYTSKHSVEVQVNVMSENILTGAKKLTNKATLWYVPLSLKNVDKVLEVPPVVYSRQEQEEEGRKRYEAQKLERMETKWRNGDIVQPVLNPEPNTVSYSQSSLIHLVGPSDCTLHGFVHGGVTMKLMDEVAGIVAARHCKTNIVTASVDAINFHDKIRKGCVITISGRMTFTSNKSMEIEVLVDADPVVDSSQKRYRAASAFFTYVSLSQEGRSLPVPQLVPETEDEKKRFEEGKGRYLQMKAKRQGHAEPQP [ACOT7]	-0.0718	58.9 °C	59.2 °C	0.0352	-2.43	-3.98
MKLNVDGLLVYFPYDYIYPEQFSYMRELKRTLDAKGHGVLEMPSGTGKTVSLLALIMAYQRAYPLEVTKLIYCSRTVPEIEKVIEELRKLLNFYEKQEGEKLPFLGLALSSRKNLCIHPEVTPLRFGKDVDGKCHSLTASYVRAQYQHDTSLPHCRFYEEFDAHGREVPLPAGIYNLDDLKALGRRQGWCPYFLARYSILHANVVVYSYHYLLDPKIADLVSKELARKAVVVFDEAHNIDNVCIDSMSVNLTRRTLDRCQGNLETLQKTVLRIKETDEQRLRDEYRRLVEGLREASAARETDAHLANPVLPDEVLQEAVPGSIRTAEHFLGFLRRLLEYVKWRLRVQHVVQESPPAFLSGLAQRVCIQRKPLRFCAERLRSLLHTLEITDLADFSPLTLLANFATLVSTYAKGFTIIIEPFDDRTPTIANPILHFSCMDASLAIKPVFERFQSVIITSGTLSPLDIYPKILDFHPVTMATFTMTLARVCLCPMIIGRGNDQVAISSKFETREDIAVIRNYGNLLLEMSAVVPDGIVAFFTSYQYMESTVASWYEQGILENIQRNKLLFIETQDGAETSVALEKYQEACENGRGAILLSVARGKVSEGIDFVHHYGRAVIMFGVPYVYTQSRILKARLEYLRDQFQIRENDFLTFDAMRHAAQCVGRAIRGKTDYGLMVFADKRFARGDKRGKLPRWIQEHLTDANLNLTVDEGVQVAKYFLRQMAQPFHREDQLGLSLLSLEQLESEETLKRIEQIAQQL [ERCC2]	-0.0825	48.9 °C	49.1 °C	-0.193	1	2.34
MKLYSLSVLYKGEAKVVLLKAAYDVSSFSFFQRSSVQEFMTFTSQLIVERSSKGTRASVKEQDYLCHVYVRNDSLAGVVIADNEYPSRVAFTLLEKVLDEFSKQVDRIDWPVGSPATIHYPALDGHLSRYQNPREADPMTKVQAELDETKIILHNTMESLLERGEKLDDLVSKSEVLGTQSKAFYKTARKQNSCCAIM [YKT6]	-0.0935	54.5 °C	54.6 °C	-0.0827	0.334	-0.9
MKMAAPTANKAASLGCNNKPAFPELDFRSGARVEELNKLIQEFTKHDQREYDDQRALEIHTAKDFIFSMLGMVQKLDQKLPVANEYLLLSGGVREGVVDLDLDELNVYARGTDYDMDFTLLVPALKLHDRNQPVTLDMRHSALCHSWLSLRLFDEGTISKWKDCCTIVDHINGATNYFFSPTKVADWFYDSISIVLSEIQKKPQRGMPKVEKVEKNGTIISIILGVGSSRMLYDIVPVVSFKGWPAVAQSWLMENHFWDGKITEEEVISGFYLVPACSYKGKKDNEWRLSFARSEVQLKKCISSSLMQAYQACKAIIIKLLSRPKAISPYHLRSMMLWACDRLPANYLAQEDYAAHFLLGLIDDLQHCLVNKMCPNYFIPQCNMLEHLSEETVMLHARKLSSVRSDPAEHLRTAIEHVKAANRLTLELQRRGSTTSIPSPQSDGGDPNQPDDRLAKKLQQLVTENPGKSISVFINPDDVTRPHFRIDDKFF [MB21D2]	-0.0032	56.3 °C	56.5 °C	0.0815	1.1	-0.608
MKMADAKQKRNEQLKRWIGSETDLEPPVVKRQKTKVKFDDGAVFLAACSSGDTDEVLKLLHRGADINYANVDGLTALHQACIDDNVDMVKFLVENGANINQPDNEGWIPLHAAASCGYLDIAEFLIGQGAHVGAVNSEGDTPLDIAEEEAMEELLQNEVNRQGVDIEAARKEEERIMLRDARQWLNSGHINDVRHAKSGGTALHVAAAKGYTEVLKLLIQAGYDVNIKDYDGWTPLHAAAHWGKEEACRILVDNLCDMEMVNKVGQTAFDVADEDILGYLEELQKKQNLLHSEKRDKKSPLIESTANMDNNQSQKTFKNKETLIIEPEKNASRIESLEQEKVDEEEEGKKDESSCSSEEDEEDDSESEAETDKTKPLASVTNANTSSTQAAPVAVTTPTVSSGQATPTSPIKKFPTTATKISPKEEERKDESPATWRLGLRKTGSYGALAEITASKEGQKEKDTAGVTRSASSPRLSSSLDNKEKEKDSKGTRLAYVAPTIPRRLASTSDIEEKENRDSSSLRTSSSYTRRKWEDDLKKNSSVNEGSTYHKSCSFGRRQDDLISSSVPSTTSTPTVTSAAGLQKSLLSSTSTTTKITTGSSSAGTQSSTSNRLWAEDSTEKEKDSVPTAVTIPVAPTVVNAAASTTTLTTTTAGTVSSTTEVRERRRSYLTPVRDEESESQRKARSRQARQSRRSTQGVTLTDLQEAEKTIGRSRSTRTREQENEEKEKEEKEKQDKEKQEEKKESETSREDEYKQKYSRTYDETYQRYRPVSTSSSTTPSSSLSTMSSSLYASSQLNRPNSLVGITSAYSRGITKENEREGEKREEEKEGEDKSQPKSIRERRRPREKRRSTGVSFWTQDSDENEQEQQSDTEEGSNKKETQTDSISRYETSSTSAGDRYDSLLGRSGSYSYLEERKPYSSRLEKDDSTDFKKLYEQILAENEKLKAQLHDTNMELTDLKLQLEKATQRQERFADRSLLEMEKRERRALERRISEMEEELKMLPDLKADNQRLKDENGALIRVISKLSK [PPP1R12A]	0.0601	50.4 °C	50.2 °C	-0.42	-1.62	-0.382
MKMADRSGKIIPGQVYIEVEYDYEYEAKDRKIVIKQGERYILVKKTNDDWWQVKPDENSKAFYVPAQYVKEVTRKALMPPVKQVAGLPNNSTKIMQSLHLQRSTENVNKLPELSSFGKPSSSVQGTGLIRDANQNFGPSYNQGQTVNLSLDLTHNNGKFNNDSHSPKVSSQNRTRSFGHFPGPEFLDVEKTSFSQEQSCDSAGEGSERIHQDSESGDELSSSSTEQIRATTPPNQGRPDSPVYANLQELKISQSALPPLPGSPAIQINGEWETHKDSSGRCYYYNRGTQERTWKPPRWTRDASISKGDFQNPGDQELLSSEENYYSTSYSQSDSQCGSPPRGWSEELDERGHTLYTSDYTNEKWLKHVDDQGRQYYYSADGSRSEWELPKYNASSQQQREIIKSRSLDRRLQEPIVLTKWRHSTIVLDTNDKESPTASKPCFPENESSPSSPKHQDTASSPKDQEKYGLLNVTKIAENGKKVRKNWLSSWAVLQGSSLLFTKTQGSSTSWFGSNQSKPEFTVDLKGATIEMASKDKSSKKNVFELKTRQGTELLIQSDNDTVINDWFKVLSSTINNQAVETDEGIEEEIPDSPGIEKHDKEKEQKDPKKLRSFKVSSIDSSEQKKTKKNLKKFLTRRPTLQAVREKGYIKDQVFGSNLANLCQRENGTVPKFVKLCIEHVEEHGLDIDGIYRVSGNLAVIQKLRFAVNHDEKLDLNDSKWEDIHVITGALKMFFRELPEPLFTFNHFNDFVNAIKQEPRQRVAAVKDLIRQLPKPNQDTMQILFRHLRRVIENGEKNRMTYQSIAIVFGPTLLKPEKETGNIAVHTVYQNQIVELILLELSSIFGR [ARHGAP12]	-0.246	50.7 °C	50.1 °C	-0.0332	-0.591	-0.433
